In the supplement of paper PMC10126150:
± gives the standard deviation of the averaged measurements.

Test system: ATP
Experiment: switch fluorescence ratio, 500 uM ATP over buffer (Cy3 cluster intensity, sum of 5 cycles each) (fold (ratio)); higher = stronger signal-on switching upon ATP binding; sequences stand for … in TCGTCGGCAGCGTCAGATGTGTATAAGAGACAGTTTTTTTTTTTTTTTTTTTTTTTTT…TC
Conditions: aptamer strand: ATP DNA aptamer (quencher-CACCTGGGGGAGTATTGCGGAGGAAGG + anchor), 100 nM annealed; ATP concentration: 500 uM
How it was run: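 Per cluster, summed Cy3 intensity from the target cycles was divided by that from the buffer cycles to give the fluorescence ratio, then averaged per switch-domain sequence. Clusters outside 100-1000 RFU were excluded. The Cy3-labelled switching-strand clusters, on a modified Illumina MiSeq flow-cell, were annealed to 100 nM quencher-labelled ATP aptamer and imaged in selection buffer, then after 15 min with 500 uM ATP at 22 °C, for five cycles with NaOH stripping and re-annealing between them.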
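Note: ATP exposure 15 min at 22 °C before imaging.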

Sequence	switch fluorescence ratio
AATCGGTGGG	0.997 ± 0.03
CAGGTACATA	1.055 ± 0.0086
AGGGGGCTGT	0.994 ± 0.03
CGGTCATATT	0.9892 ± 0.0037
TACTAACCTT	1.43 ± 0.18
CTGGAGGGAC	1.06 ± 0.026
TGAGTGGGGA	1 ± 0.013
ACTGAATCCT	1.08 ± 0.028
GGTTGGCAGA	0.99 ± 0.059
GGGCCCGGGA	0.986 ± 0.018
GACTGATACC	1.17 ± 0.035
TTTATCTGAA	0.9783 ± 0.0017
TTCGGATATT	1.13 ± 0.23
TATTGGGGGA	0.995 ± 0.043
GGGTTTATCA	1.03 ± 0.03
TGTGTGGGTT	1.01 ± 0.035
TCGGGGATG	1.52 ± 0.83
ACAATCTAAA	1.033 ± 0.0091
TCATGGCGGT	1.01 ± 0.014
ACTTGCCTGT	1.005 ± 0.01
ATGGGAGGGC	0.9698 ± 0.0059
AAGTAATGGG	0.961 ± 0.041
AACTCTTCTT	1.04 ± 0.035

Sequence	switch fluorescence ratio
AACCTATGGT	0.978 ± 0.0042
TTAAGACTGT	1.01 ± 0.037
ATATTAGGGG	1.01 ± 0.032
CCGCGGGGGG	1.08 ± 0.088
GTGATATAAG	0.986 ± 0.031
GCAATCGGGA	1.2 ± 0.087
GGCGGAGAGG	1.08 ± 0.022
CGATGTCAGC	1.073 ± 0.0036
TGGGTTGTAT	0.998 ± 0.02
GATAAGGAAC	0.9788 ± 0.0072
GGGTAAATCT	1.04 ± 0.026
GGGGCATCTT	1.01 ± 0.046
TAGGGGTTAG	0.9808 ± 0.0098
TCTTAGAGGG	0.991 ± 0.017
CAGGAGACTA	0.9979 ± 0.0094
CCATGGGAAA	0.961 ± 0.03
GTATGCCGTC	0.988 ± 0.076
AGGGTGGGTA	0.9768 ± 0.0053
TGTTGGGAGA	1 ± 0.025
TAGGGGGTAA	0.997 ± 0.039
TTTACGAGGT	1.01 ± 0.037
CCATGCCACA	1.05 ± 0.029
CAGGTTTGTG	1.01 ± 0.018

Sequence	switch fluorescence ratio
ATATGGATGT	0.997 ± 0.029
GAAATACGCT	1.08 ± 0.022
GCCATCAAGA	0.995 ± 0.062
GTTAATTGAT	1 ± 0.027
GCCCCGGGGG	1.1 ± 0.046
TAATTTTCCG	1.02 ± 0.043
AAGTTCGATG	0.976 ± 0.025
CATTAGGGGT	0.978 ± 0.012
TTGGGGGCAC	1.024 ± 0.0069
AGCAAATTCT	1.16 ± 0.072
ATGGGGGGT	0.992 ± 0.028
TATTGCGGCA	1.011 ± 0.0051
TTCAGGCCTT	1.04 ± 0.059
AAGGGACTGC	0.97 ± 0.018
TTGATTTTGC	0.993 ± 0.013
CAGTTGCGAG	0.983 ± 0.042
GGGATTGTTT	0.965 ± 0.021
AGCGGTTCGC	0.9931 ± 0.0056
GGGGTAGAGT	0.98 ± 0.017
GGACATGTAG	0.965 ± 0.024
AAGCAGGGGA	1.05 ± 0.032
TGAAGGTCGG	0.9917 ± 0.0039
TTATAGATGT	0.992 ± 0.027

Sequence	switch fluorescence ratio
ATCCTGGGTG	3.73 ± 1.5
GGGAATGTAG	1.01 ± 0.018
TCTCACGGGG	1.29 ± 0.33
GTTAACTTTG	1.0027 ± 0.00076
GGCATTGTCT	1.03 ± 0.023
CTGGGTTGTT	1.0204 ± 0.00077
AGTTTTTAAT	0.999 ± 0.018
AGAGGAGGGA	0.9737 ± 0.0047
AAAGGTCTGA	0.98 ± 0.0099
AGAGAGTGAC	0.981 ± 0.01
TTTTATTGCG	0.995 ± 0.011
TCCTGCTCCG	1.56 ± 0.13
AGTAAGGGGT	0.982 ± 0.021
GGCGCTGAGT	1.017 ± 0.01
TCGGCGGTGG	0.963 ± 0.05
AGGGAATTGT	1 ± 0.037
CCGATAGCGT	2.81 ± 0.45
CCTCTGGAGG	1.09 ± 0.013
TGGACGTGAT	1.83 ± 1
GATACCCATA	0.996 ± 0.016
TTTAGTTTTC	0.991 ± 0.019
TGCGAGGGTG	1.02 ± 0.065
TCCGGGTTGT	1.04 ± 0.056

Sequence	switch fluorescence ratio
ATTTGAAGAG	1.01 ± 0.014
GGATTAAATG	0.982 ± 0.037
AAGTACTAGC	1.212 ± 0.0086
ATAAGGCTCG	0.966 ± 0.011
GGGCAACTTT	0.997 ± 0.049
TGGGTAGGGA	0.9759 ± 0.0093
ATGAGATAGG	0.982 ± 0.045
CAAGGCTTGA	0.974 ± 0.022
TCTTAGGAGG	0.9691 ± 0.0023
ATGAAGCTAG	1.06 ± 0.013
TTGATTTTGG	0.988 ± 0.026
ATATAGAGG	1.02 ± 0.019
TAAAATGGCG	1 ± 0.055
TTGGGGGGG	1.02 ± 0.035
TGGGACCTGG	1.07 ± 0.15
TAATTTTAGG	0.996 ± 0.012
TAATAAGGGG	1.02 ± 0.028
GGGTGGGTTA	1.01 ± 0.038
TGGGGCGAGG	1.01 ± 0.014
TAAGGTTCTC	0.96 ± 0.015
AGGGGGGACT	0.993 ± 0.011
GCATGAGTGC	1.07 ± 0.061
CGTGTACTTA	1.03 ± 0.01

Sequence	switch fluorescence ratio
GGGGGCGAAT	1.01 ± 0.011
ATTCAGGTTT	0.992 ± 0.026
CTAGTAGATC	1.04 ± 0.014
TTTCGAAATG	1.01 ± 0.027
ACCACGCGGG	1.01 ± 0.066
TTTTTTGACG	0.9938 ± 0.0062
TAAAATAGAG	1 ± 0.035
TTAGACAAGG	0.95377 ± 0.00078
TTTTTGCTTG	0.98 ± 0.029
ATAAGTAAAG	1.01 ± 0.021
GATTAGGGGA	1.01 ± 0.015
TGTGGGTCCG	1 ± 0.036
GCATGCTGGG	1.04 ± 0.0064
CTATAAGGG	0.985 ± 0.031
AGTCGTGTCT	0.967 ± 0.012
TTAATTAGGT	1.02 ± 0.071
GGATTCAGGC	0.981 ± 0.027
GCATGCAGGA	1.01 ± 0.02
AACTAGAGAC	0.975 ± 0.01
AATCGGTAAT	1.027 ± 0.0081
GTGGTGCGGA	0.943 ± 0.052
ATGGGAAGGC	0.983 ± 0.026
GTTTTGTATG	1.004 ± 0.0044

Sequence	switch fluorescence ratio
GAGAGGGAAG	1.004 ± 0.0077
ATATGTGGGA	1.02 ± 0.033
TGTGTTGTTT	1 ± 0.044
GCTGTTCAAG	1 ± 0.026
GGGTGTGGG	0.986 ± 0.05
AACGCGTGGG	1.01 ± 0.003
TTTGTTGGAA	0.99 ± 0.025
CAGTCGGTTT	1.013 ± 0.0088
CTTCTATGTT	0.984 ± 0.002
TGGATAAAGT	0.985 ± 0.013
GTGTCCATTG	0.998 ± 0.074
AAATGAAGGT	1.01 ± 0.013
TGGGATTGAC	1.06 ± 0.019
GGCTGTTTTT	0.962 ± 0.034
GGGGGGTCCA	1.01 ± 0.023
AGGAGATACC	1.03 ± 0.049
GGGTGCGGGC	1.04 ± 0.098
CGCATAGTTG	1.06 ± 0.024
GAAGTGCGAG	1.004 ± 0.008
